Measurements as given in PMC6142219.

Biological target: CBS–CP12 protein (IPF_2164) of Microcystis aeruginosa PCC 7806 (Microcystis aeruginosa PCC 7806)
Assay: SEC

CBS–CP12 protein (IPF_2164) of Microcystis aeruginosa PCC 7806 (natural protein)
stoichiometry N: 6
